Tested on: recombinant nucleosome

Sequence of NSD2 E1087Q mutation (Example 7) (chain, as listed by the source E1087Q): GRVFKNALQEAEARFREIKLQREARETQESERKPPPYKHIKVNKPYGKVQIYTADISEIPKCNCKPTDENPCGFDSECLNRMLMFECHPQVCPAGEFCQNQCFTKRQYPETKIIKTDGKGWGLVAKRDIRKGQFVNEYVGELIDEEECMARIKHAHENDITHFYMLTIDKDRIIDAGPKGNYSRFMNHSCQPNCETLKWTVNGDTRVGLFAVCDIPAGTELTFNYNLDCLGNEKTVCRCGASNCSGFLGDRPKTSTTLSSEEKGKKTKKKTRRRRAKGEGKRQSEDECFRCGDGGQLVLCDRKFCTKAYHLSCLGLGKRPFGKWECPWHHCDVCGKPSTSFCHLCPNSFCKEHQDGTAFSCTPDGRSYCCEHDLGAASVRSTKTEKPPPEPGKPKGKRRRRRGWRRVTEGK
Sequence of NSD2 E1099K mutant protein, purified (Example 7) (chain, as listed by the source E1099K): as the sequence (chain, as listed by the source E1087Q) above, with Q133E, E145K counted along it

| Substance | SAH production by LC/MS/MS in an enzymatic reaction with SAM and nucleosome (FIG. 9) |
| --- | --- |
| NSD2 E1087Q mutation (Example 7) | the NSD2 E1087Q mutation has less N-methyltransferase activity in each case |
| NSD2 E1099K mutant protein, purified (Example 7) | the NSD2 E1099K protein gains extra activity on recombinant nucleosome compared to NSD2 WT |

Reference: patent US20150354006
